Test results taken from patent US20250361311A1 (Xencor, published 2025).

Assays:
[1] = target: T1, soluble recombinant human TL1A trimer (human, UniProt O95150 72-251, limits assumed); assay: SPR at 37 C, soluble TL1A trimer up to 100 nM; apparent KD (KDapp)
T1 construct: also called active TL1A trimer; trimeric TL1A
T1 sequence (looked up): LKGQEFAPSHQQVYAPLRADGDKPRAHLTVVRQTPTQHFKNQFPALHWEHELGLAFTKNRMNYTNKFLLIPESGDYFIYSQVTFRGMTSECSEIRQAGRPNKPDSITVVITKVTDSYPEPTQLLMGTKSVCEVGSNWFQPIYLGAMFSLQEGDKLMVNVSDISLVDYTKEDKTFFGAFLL
Experimental: In addition to measuring binding to scTL1A, binding to increasing concentrations of soluble recombinant human TL1A trimer (up to 100 nM) was measured at 37C via surface plasmon resonance.

[2] = target: TRAIL (UniProt P50591 114-281); assay: BLI (Octet RH96, FIG. 22)
TRAIL, sequence (P50591 114-281 limits assumed): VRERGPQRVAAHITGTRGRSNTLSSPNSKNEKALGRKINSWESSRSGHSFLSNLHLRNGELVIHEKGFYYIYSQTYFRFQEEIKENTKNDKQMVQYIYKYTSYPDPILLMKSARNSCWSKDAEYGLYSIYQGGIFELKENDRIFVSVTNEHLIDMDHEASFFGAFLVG

[3] = target: LIGHT (UniProt O43557 74-240, limits assumed); assay: BLI (Octet RH96, FIG. 22)
LIGHT, sequence (O43557 74-240 limits assumed): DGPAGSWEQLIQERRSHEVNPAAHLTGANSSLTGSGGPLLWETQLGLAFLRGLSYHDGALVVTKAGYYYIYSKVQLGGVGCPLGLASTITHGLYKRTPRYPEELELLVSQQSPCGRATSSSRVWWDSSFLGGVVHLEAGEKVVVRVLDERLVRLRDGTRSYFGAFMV

[4] = target: T2, FasL (UniProt P48023 134-281, limits assumed); assay: BLI (Octet RH96, FIG. 22)
T2 sequence (looked up): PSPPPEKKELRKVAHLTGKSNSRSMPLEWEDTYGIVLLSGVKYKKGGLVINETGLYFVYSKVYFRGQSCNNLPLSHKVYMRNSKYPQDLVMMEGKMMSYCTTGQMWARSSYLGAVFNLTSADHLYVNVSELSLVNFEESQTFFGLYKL

[5] = target: T3, membrane-bound TL1A transiently expressed on CHO cells (human, UniProt O95150 1-251); assay: flow cytometry on CHO cells transiently transfected with TL1A, 1 hour at 4 C
T3 construct: whole, on cells
T3 sequence (looked up): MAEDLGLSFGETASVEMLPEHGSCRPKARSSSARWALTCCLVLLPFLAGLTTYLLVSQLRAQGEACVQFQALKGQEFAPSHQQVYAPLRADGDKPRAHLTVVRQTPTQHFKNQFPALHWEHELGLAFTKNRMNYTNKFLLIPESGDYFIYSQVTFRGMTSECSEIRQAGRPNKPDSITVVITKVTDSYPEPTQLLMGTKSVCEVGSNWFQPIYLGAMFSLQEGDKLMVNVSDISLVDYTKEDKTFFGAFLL
Experimental: Anti-TL1A mAbs were first screened for binding affinity to membrane-bound TL1A. CHO cells were transiently transfected to express TL1A, then were incubated with anti-TL1A mAbs for 1 hour at 4° C. and analyzed by flow cytometry. Hundreds of anti-TL1A mAbs were screened for binding, in order to determine which were the best binders to investigate further. […] The binding data is depicted in FIG. 16A.

- Kd [1]: 0.008 to 0.01 nM
- binding result [2]: no binding
- binding result [3]: no binding
- binding result [4]: no binding
- EC50 [5]: 1.1 nM
B1: XENP47942 70416_041[TL1a]_H1L1_Fab IgG1_PVA_/S267K/M428L/N434S (antibody, V domains shown)
VH: QVQLVQSGAEVKKPGASVKVSCKVSGFSVTSYNVHWVRQAPGQGLEWMGVMWSGGNTDYNSKFQGRVTMTRDTSTNTVYMELSSLRSEDTAVYYCARAGRYYHDSNYYWDFPYWGQGTLVTVSS
VL: DIQMTQSPSSVSASVGDRVTITCRASEDIYSGLAWYQQKPGKSPKLLIYGASSLQDGVPSRFSGSGSGTDYTLTISSLQPEDFATYFCQEGLKSPYTFGAGTKLEIKR
notes: also called XmAb942; Xmab942
